Laboratory results published in publication PMC10996581 (The Journal of Cell Biology, 2024).
Where no end group is shown, it is not given here.

Key:
[1] = biological target: T1, IRE1αLDΔ308–357 mutant (human, UniProt O75460 24-443, Δ308–357); experiment: […]
T1 sequence: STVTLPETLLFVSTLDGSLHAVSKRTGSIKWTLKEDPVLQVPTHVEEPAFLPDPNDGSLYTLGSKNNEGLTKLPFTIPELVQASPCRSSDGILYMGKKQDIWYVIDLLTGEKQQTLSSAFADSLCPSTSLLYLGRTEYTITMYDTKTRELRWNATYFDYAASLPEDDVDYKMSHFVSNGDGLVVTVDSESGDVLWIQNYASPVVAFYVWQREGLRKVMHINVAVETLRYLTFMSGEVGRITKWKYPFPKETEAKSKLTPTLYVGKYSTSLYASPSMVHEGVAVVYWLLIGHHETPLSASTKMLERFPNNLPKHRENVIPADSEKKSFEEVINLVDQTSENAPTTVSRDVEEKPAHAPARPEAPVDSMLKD

[2] = biological target: T1, IRE1αLDΔ308–357 mutant; experiment: MST

Question: Does IYGWYRVHFGVLDEQLHR (also: 5-FAM labelled, position not given here) [CTxA_(I124-R141) peptide, 5-FAM labelled] bind [1]?
Answer: binds

B1: His6-CTxA1 (enzymatic A1 chain of the cholera toxin A subunit) (domain or fragment)
chain: NDDKLYRADSRPPDEIKQSGGLMPRGQSEYFDRGTQMNINLYDHARGTQTGFVRHDDGYVSTSISLRSAHLVGQTILSGHSTYYIYVIATAPNMFNVNDVLGAYSPHPDEQEVSALGGIPYSQIYGWYRVHFGVLDEQLHRNRGYRDRYYSNLDIAPAADGYGLAGFPPEHRAWREEPWIHHAPPGCGNAPRSS
Question: Does B1 bind [2]?
Answer: binds
